Data as given in publication PMC8928218 (Frontiers in Cell and Developmental Biology, 2022).

Molecular target: Pyrene-labeled G-actin (rabbit, UniProt P68135 1-377, pyrene label)
Assay: cell-based or functional assay

B1: human hexameric SEPT2/6/7 complex (complex)
chain 1: MSKQQPTQFINPETPGYVGFANLPNQVHRKSVKKGFEFTLMVVGESGLGKSTLINSLFLTDLYPERVIPGAAEKIERTVQIEASTVEIEERGVKLRLTVVDTPGYGDAINCRDCFKTIISYIDEQFERYLHDESGLNRRHIIDNRVHCCFYFISPFGHGLKPLDVAFMKAIHNKVNIVPVIAKADTLTLKERERLKKRILDEIEEHNIKIYHLPDAESDEDEDFKEQTRLLKASIPFSVVGSNQLIEAKGKKVRGRLYPWGVVEVENPEHNDFLKLRTMLITHMQDLQEVTQDLHYENFRSERLKRGGRKVENEDMNKDQILLEKEAELRRMQEMIARMQAQMQMQMQGGDGDGGALGHHV
chain 2: MAATDIARQVGEGCRTVPLAGHVGFDSLPDQLVNKSVSQGFCFNILCVGETGLGKSTLMDTLFNTKFEGEPATHTQPGVQLQSNTYDLQESNVRLKLTIVSTVGFGDQINKEDSYKPIVEFIDAQFEAYLQEELKIRRVLHTYHDSRIHVCLYFIAPTGHSLKSLDLVTMKKLDSKVNIIPIIAKADAISKSELTKFKIKITSELVSNGVQIYQFPTDDESVAEINGTMNAHLPFAVIGSTEELKIGNKMMRARQYPWGTVQVENEAHCDFVKLREMLIRVNMEDLREQTHTRHYELYRRCKLEEMGFKDTDPDSKPFSLQETYEAKRNEFLGELQKKEEEMRQMFVQRVKEKEAELKEAEKELHEKFDRLKKLHQDEKKKLEDKKKSLDDEVNAFKQRKTAAELLQSQGSQAGGSQTLKRDKEKKNNPWLCTE
chain 3: MSVSARSAAAEERSVNSSTMVAQQKNLEGYVGFANLPNQVYRKSVKRGFEFTLMVVGESGLGKSTLINSLFLTDLYSPEYPGPSHRIKKTVQVEQSKVLIKEGGVQLLLTIVDTPGFGDAVDNSNCWQPVIDYIDSKFEDYLNAESRVNRRQMPDNRVQCCLYFIAPSGHGLKPLDIEFMKRLHEKVNIIPLIAKADTLTPEECQQFKKQIMKEIQEHKIKIYEFPETDDEEENKLVKKIKDRLPLAVVGSNTIIEVNGKRVRGRQYPWGVAEVENGEHCDFTILRNMLIRTHMQDLKDVTNNVHYENYRSRKLAAVTYNGVDNNKNKGQLTKSPLAQMEEERREHVAKMKKMEMEMEQVFEMKVKEKVQKLKDSEAELQRRHEQMKKNLEAQHKELEEKRRQFEDEKANWEAQQRILEQQNSSRTLEKNKKKGKIF
fold decrease in actin monomer turnover in the elongation phase (tau, the inverse value of the rate constant) in the pyrene actin polymerization assay, 2 µM actin, relative to actin alone: ~1.4 fold
